From patent publication US20190292270A1 (UNIVERSITY OF TOKYO, published 2019) come the findings set out here.

For the assay, the target named is T1, mouse TLR9 (mouse, UniProt Q9EQU3 26-1032).
T1 construct: Endogenous TLR9 of mouse spleen cDCs (staining) and of BM-cDC lysate (immunoprecipitation); also called endogenous TLR9
T1 sequence: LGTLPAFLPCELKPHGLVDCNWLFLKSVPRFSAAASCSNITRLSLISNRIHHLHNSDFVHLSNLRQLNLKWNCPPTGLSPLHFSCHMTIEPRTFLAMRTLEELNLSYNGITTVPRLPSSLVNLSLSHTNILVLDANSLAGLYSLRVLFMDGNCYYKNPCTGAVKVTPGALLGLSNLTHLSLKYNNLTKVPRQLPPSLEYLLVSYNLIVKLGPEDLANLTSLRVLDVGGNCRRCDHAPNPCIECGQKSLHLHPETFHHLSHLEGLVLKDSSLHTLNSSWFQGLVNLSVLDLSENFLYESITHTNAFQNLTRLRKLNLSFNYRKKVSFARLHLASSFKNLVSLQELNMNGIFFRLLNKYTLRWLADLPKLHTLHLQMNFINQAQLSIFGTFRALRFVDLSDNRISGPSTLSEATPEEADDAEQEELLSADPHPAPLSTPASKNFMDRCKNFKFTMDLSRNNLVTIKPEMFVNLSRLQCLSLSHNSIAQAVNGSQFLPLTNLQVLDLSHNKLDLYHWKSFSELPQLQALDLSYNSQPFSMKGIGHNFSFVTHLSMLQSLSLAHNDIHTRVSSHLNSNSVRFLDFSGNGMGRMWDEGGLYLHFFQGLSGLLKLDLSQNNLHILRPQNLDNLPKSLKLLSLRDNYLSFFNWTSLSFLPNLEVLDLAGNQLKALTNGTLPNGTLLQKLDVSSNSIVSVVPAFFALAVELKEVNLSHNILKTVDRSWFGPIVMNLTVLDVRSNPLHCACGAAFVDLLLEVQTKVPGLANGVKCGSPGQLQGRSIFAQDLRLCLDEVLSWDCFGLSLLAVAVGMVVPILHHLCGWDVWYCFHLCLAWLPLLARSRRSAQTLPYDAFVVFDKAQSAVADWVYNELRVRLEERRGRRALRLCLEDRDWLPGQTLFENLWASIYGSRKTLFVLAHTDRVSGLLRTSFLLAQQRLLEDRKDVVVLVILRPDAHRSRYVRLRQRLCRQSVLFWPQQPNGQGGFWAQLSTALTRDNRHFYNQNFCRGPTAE
The assay is described as follows: immunoprecipitation from BM-cDC lysate, Western blot; also staining of spleen cDCs. The protocol:
The protein expression of TLR9 was analyzed by Western blot. BM-cDCs were washed twice with 1×PBS and recovered. The recovered cells were lysed for 30 minutes in an ice-cold buffer for lysis (1% Triton X 100, 20 mM Tris-HCl (pH 7.4), 150 mM NaCl, 1 mM CaCl₂, 1 mM MgCl₂, 10% glycerol, 1 mM DTT and Complete protease Inhibitor Cocktail (F. Hoffmann-La Roche, Ltd.)) and centrifuged at a high speed, followed by the recovery of the supernatant of the cell lysate.
The recovered cell lysate was added to N-hydroxy succinimide-activated Sepharose 4FF beads bound with the anti-TLR9 monoclonal antibody (NaR9), and the mixture was stirred at 4° C. for 2 hours. TLR9 was immunoprecipitated by this step. The beads thus stirred were washed three times with an ice-cold buffer for washing (0.1% Triton X 100, 20 mM Tris/HCl (pH 7.4), 150 mM NaCl, 1 mM CaCl₂), 1 mM MgCl2, 0.1% glycerol, and 1 mM DTT). To the washed beads, an SDS sample buffer (125 mM Tris/HCl [pH 6.8], 20% glycerol, 4% SDS, 10% 2-ME, and 0.005% bromophenol blue) was added, and the mixture was heated at 96° C. for 5 minutes for protein denaturation treatment. The sample thus prepared was subjected to polyacrylamide electrophoresis, and the protein was transferred to a PVDF membrane and Western-blotted. […]

B1: anti-mouse TLR9 monoclonal antibody NaR9 (antibody, IgG2a, V domains shown)
VH: QVHLQQSGPDLVKPGASVQMSCKTSDYTFTNYYLHWVRQRPGQGLEWIGWIYPGDGSTKYNDQFRGRTTLTADKSSSTAYMFLSSLTSEDSAIYFCAKSWDYFDYWGQGTTLTVSS
VL: DIQMTQSPSSLSASLGGKVTITCKASQDIDNYIAWYQHKPGKGPRLLIHYASTLQPGIPSRFSGSGSGRDYSLSISNLEPEDIATYYCLQYDDLYTFGGGTKLEIK
notes: Mouse hybridoma antibody, subclass IgG2a/kappa, purified from ascitic fluid; They may therefore cover only the variable regions, possibly with a leader; also called NaR9 antibody; anti-TLR9 monoclonal antibody (NaR9)
B1: the binding result is “binds”.
